According to patent US20240117049A1 (Hoffmann-La Roche, published 2024):

T1: human OX40 on cells (human, UniProt P43489 29-277)
T1 construct: also called CD134
T1 sequence: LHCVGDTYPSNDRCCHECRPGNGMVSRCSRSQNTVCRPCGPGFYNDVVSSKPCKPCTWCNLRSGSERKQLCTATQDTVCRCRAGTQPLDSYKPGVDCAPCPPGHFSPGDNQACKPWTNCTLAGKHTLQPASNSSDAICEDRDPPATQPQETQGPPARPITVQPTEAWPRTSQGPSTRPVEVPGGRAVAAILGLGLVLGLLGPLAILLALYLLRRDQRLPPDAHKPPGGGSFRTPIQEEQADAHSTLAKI

T2: biotinylated human OX40 (human, UniProt P43489 29-214, limits assumed, biotinylated)
T2 sequence: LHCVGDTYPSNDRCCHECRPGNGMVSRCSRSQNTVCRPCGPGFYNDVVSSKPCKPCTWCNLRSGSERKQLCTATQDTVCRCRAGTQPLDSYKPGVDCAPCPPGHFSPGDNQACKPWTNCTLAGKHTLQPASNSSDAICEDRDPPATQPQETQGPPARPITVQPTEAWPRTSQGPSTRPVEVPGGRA


Assays:
[1] = biological target: T3, biotinylated recombinant human FAP (human, UniProt Q12884 27-760, biotinylated); experiment: SPR (Biacore)
T3 construct: the Biacore paragraphs only say biotinylated (recombinant) human FAP; also called biotinylated human FAP; recombinant huFAP

[2] = biological target: T3, biotinylated recombinant human FAP; experiment: SPR (Biacore), biotinylated huFAP on CAP chip, Fab as analyte, 1:1 fit
[3] = biological target: T4, FcRn (biotinylated, coupled to streptavidin-sepharose); experiment: FcRn affinity chromatography, pH gradient, retention compared to standards
T4 construct: also called neonatal Fc receptor

human OX40 on cells [4] = biological target: T1, human OX40 on cells; experiment: flow cytometry, activated human CD4+ T cells
biotinylated human OX40 = biological target: T2, biotinylated human OX40; experiment: SPR, stressed against unstressed sample, normalised to anti-hu IgG capture
[5] = biological target: T3, biotinylated recombinant human FAP; experiment: as above
human OX40 on cells [6] = biological target: T1, human OX40 on cells; experiment: cell-based or functional assay
[7] = biological target: T5, human Fibroblast Activation Protein (FAP) expressed on cells (human, UniProt Q12884 1-760); experiment: flow cytometry, NIH/3T3-huFAP clone 19 cells
T5 construct: cell surface FAP on transfected HEK cells or NIH/3T3-huFAP clone 19 fibroblasts; also called huFAP; human FAP-transfected HEK cells

human OX40 on cells [8] = biological target: T1, human OX40 on cells; experiment: cell-based or functional assay; remark: listed apart in the source

T4 sequence (P55899 24-297, chain 1 of 2): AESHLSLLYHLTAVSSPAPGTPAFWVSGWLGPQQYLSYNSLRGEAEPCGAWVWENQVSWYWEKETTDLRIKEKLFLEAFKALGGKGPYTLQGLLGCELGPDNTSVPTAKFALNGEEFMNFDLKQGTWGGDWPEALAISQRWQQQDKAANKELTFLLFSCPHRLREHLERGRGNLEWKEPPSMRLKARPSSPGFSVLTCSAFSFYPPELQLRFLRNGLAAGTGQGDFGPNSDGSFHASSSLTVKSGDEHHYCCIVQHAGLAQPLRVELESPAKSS
T4 sequence (P61769 21-119, chain 2 of 2, further chain): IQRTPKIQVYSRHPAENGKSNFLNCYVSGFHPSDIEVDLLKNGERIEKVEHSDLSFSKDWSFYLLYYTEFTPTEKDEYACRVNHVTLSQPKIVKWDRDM

Binder | Kd [1] [pM] | T ½ [1] [h] | koff [1] [s⁻¹] | kon [1] [M⁻¹ s⁻¹] | EC50 of NFκB activation, HeLa_hOx40_NFkB_Luc1, w/ hu FAP+ fibroblasts (human OX40 on cells [6]) [pM] | AUC of CD25 upregulation compared to reference compound [%] (human OX40 on cells [8]) | further results
P1AE1702_Fab, humanized anti-FAP Fab VH2G2a/VL2G2a (Fab, V domains shown) VH: EVQLLESGGGLVQPGGSLRLSCAASGYTLTDYNMDWVRQAPGKGLEWVGDIYPNTGGTIYNQKFKGRFTISIDKSKNTAYLQMNSLRAEDTAVYYCTRFRGIHYAMDYWGQGTTVTVSS VL: DIQMTQSPSSLSASVGDRVTITCRASESVDNYGLSFINWFQQKPGQPPKLLIYGTSNRGSGVPSRFSGSGSGTDFTLTISSLQPEDFAMYFCQQSNEVPYTFGGGTKVEIK | 213 | 1.8 | 0.000107 | 502000 |  |  | 
4B9_Fab (Fab, V domains shown, Fab; also called anti-FAP 4B9 Fab) VH: EVQLLESGGGLVQPGGSLRLSCAASGFTFSSYAMSWVRQAPGKGLEWVSAIIGSGASTYYADSVKGRFTISRDNSKNTLYLQMNSLRAEDTAVYYCAKGWFGGFNYWGQGTLVTVSS VL: EIVLTQSPGTLSLSPGERATLSCRASQSVTSSYLAWYQQKPGQAPRLLINVGSRRATGIPDRFSGSGSGTDFTLTISRLEPEDFAVYYCQQGIMLPPTFGQGTKVEIK | 279 | 0.917 | 0.000208 | 747000 |  |  | Kd [2]: 430 pM; koff [2]: 0.00078 s⁻¹; kon [2]: 1.82e+06 M⁻¹ s⁻¹
P1AE8875 OX40(MOXR0916) x FAP (1G1a) (3 + 1) C-terminal crossfab fusion (bispecific antibody, human IgG1, kappa, L234A L235A, also called MOX0916 3+1) heavy 1: not shown heavy 2: EVQLVQSGAEVKKPGASVKVSCKASGYTFTDSYMSWVRQAPGQGLEWIGDMYPDNGDSSYNQKFRERVTITRDTSTSTAYLELSSLRSEDTAVYYCVLAPRWYFSVWGQGTLVTVSSASTKGPSVFPLAPSSKSTSGGTAALGCLVEDYFPEPVTVSWNSGALTSGVHTFPAVLQSSGLYSLSSVVTVPSSSLGTQTYICNVNHKPSNTKVDEKVEPKSCGGGGSGGSGGEVQLVQSGAEVKKPGASVKVSCKASGYTFTDSYMSWVRQAPGQGLEWIGDMYPDNGDSSYNQKFRERVTITRDTSTSTAYLELSSLRSEDTAVYYCVLAPRWYFSVWGQGTLVTVSSASTKGPSVFPLAPSSKSTSGGTAALGCLVEDYFPEPVTVSWNSGALTSGVHTFPAVLQSSGLYSLSSVVTVPSSSLGTQTYICNVNHKPSNTKVDEKVEPKSCDKTHTCPPCPAPEAAGGPSVFLFPPKPKDTLMISRTPEVTCVVVDVSHEDPEVKFNWYVDGVEVHNAKTKPREEQYNSTYRVVSVLTVLHQDWLNGKEYKCKVSNKALGAPIEKTISKAKGQPREPQVCTLPPSRDELTKNQVSLSCAVKGFYPSDIAVEWESNGQPENNYKTTPPVLDSDGSFFLVSKLTVDKSRWQQGNVFSCSVMHEALHNHYTQKSLSLSPG light 1: not shown light 2: EIVLTQSPATLSLSPGERATLSCRASESVDNYGLSFINWFQQKPGQAPRLLIYGTSNRGSGIPARFSGSGSGTDFTLTISSLEPEDFAVYFCQQSNEVPYTFGGGTKVEIKSSASTKGPSVFPLAPSSKSTSGGTAALGCLVKDYFPEPVTVSWNSGALTSGVHTFPAVLQSSGLYSLSSVVTVPSSSLGTQTYICNVNHKPSNTKVDKKVEPKSC |  |  |  |  | 310 | 100 | FcRn affinity (relative retention) [3]: -0.22; EC50 (human OX40 on cells [4]): 690 pM; binding activity [%] after 2 weeks at pH 6.0/40°C (biotinylated human OX40): > 90%; binding activity [%] after 2 weeks at pH 7.4/37°C (biotinylated human OX40): > 90%; binding activity [%] after 2 weeks at pH 6.0/40°C [5]: > 90%; binding activity [%] after 2 weeks at pH 7.4/37°C [5]: > 90%; EC50 of NFκB activation, HeLa_hOx40_NFkB_Luc1, w/o crosslinking (human OX40 on cells [6]): 3940 pM; EC50 [7]: 2700 pM; EC50 of CD25 upregulation on CD4+ T cells, suboptimal TCR stimulation of human PBMC with FAP+ fibroblasts (human OX40 on cells [8]): 20 pM
P1AE8872 OX40(MOXR0916) x FAP (1G1a) (2 + 1) C-terminal crossfab fusion (bispecific antibody, human IgG1, kappa, L234A L235A, also called MOX0916 2+1) heavy 1: not shown heavy 2: EVQLVQSGAEVKKPGASVKVSCKASGYTFTDSYMSWVRQAPGQGLEWIGDMYPDNGDSSYNQKFRERVTITRDTSTSTAYLELSSLRSEDTAVYYCVLAPRWYFSVWGQGTLVTVSSASTKGPSVFPLAPSSKSTSGGTAALGCLVEDYFPEPVTVSWNSGALTSGVHTFPAVLQSSGLYSLSSVVTVPSSSLGTQTYICNVNHKPSNTKVDEKVEPKSCDKTHTCPPCPAPEAAGGPSVFLFPPKPKDTLMISRTPEVTCVVVDVSHEDPEVKFNWYVDGVEVHNAKTKPREEQYNSTYRVVSVLTVLHQDWLNGKEYKCKVSNKALGAPIEKTISKAKGQPREPQVCTLPPSRDELTKNQVSLSCAVKGFYPSDIAVEWESNGQPENNYKTTPPVLDSDGSFFLVSKLTVDKSRWQQGNVFSCSVMHEALHNHYTQKSLSLSPG light 1: not shown light 2: EIVLTQSPATLSLSPGERATLSCRASESVDNYGLSFINWFQQKPGQAPRLLIYGTSNRGSGIPARFSGSGSGTDFTLTISSLEPEDFAVYFCQQSNEVPYTFGGGTKVEIKSSASTKGPSVFPLAPSSKSTSGGTAALGCLVKDYFPEPVTVSWNSGALTSGVHTFPAVLQSSGLYSLSSVVTVPSSSLGTQTYICNVNHKPSNTKVDKKVEPKSC |  |  |  |  | 190 | 106 | FcRn affinity (relative retention) [3]: 0.15; EC50 (human OX40 on cells [4]): 900 pM; binding activity [%] after 2 weeks at pH 6.0/40°C (biotinylated human OX40): > 90%; binding activity [%] after 2 weeks at pH 7.4/37°C (biotinylated human OX40): > 90%; binding activity [%] after 2 weeks at pH 6.0/40°C [5]: > 90%; binding activity [%] after 2 weeks at pH 7.4/37°C [5]: > 90%; EC50 [7]: 1780 pM; EC50 of CD25 upregulation on CD4+ T cells, suboptimal TCR stimulation of human PBMC with FAP+ fibroblasts (human OX40 on cells [8]): 10 pM
P1AD3690, untargeted tetravalent OX40 (49B4) antigen binding molecule (4+0) (antibody, human IgG1, kappa, L234A L235A) heavy: not shown light: DIQMTQSPSTLSASVGDRVTITCRASQSISSWLAWYQQKPGKAPKLLIYDASSLESGVPSRFSGSGSGTEFTLTISSLQPDDFATYYCQQYSSQPYTFGQGTKVEIKRTVAAPSVFIFPPSDEQLKSGTASVVCLLNNFYPREAKVQWKVDNALQSGNSQESVTEQDSKDSTYSLSSTLTLSKADYEKHKVYACEVTHQGLSSPVTKSFNRGEC |  |  |  |  | 180 | 13 | EC50 of NFκB activation, HeLa_hOx40_NFkB_Luc1, w/o crosslinking (human OX40 on cells [6]): 230 pM
P1AE1690_Fab, humanized anti-FAP Fab VH1G2a/VL1G1a (Fab, V domains shown) VH: QVQLVQSGAEVKKPGASVKVSCKASGYTLTDYNMDWVRQAPGKSLEWIGDIYPNTGGTIYNQKFKGRVTMTIDKSTSTVYMELSSLRSEDTAVYYCTRFRGIHYAMDYWGQGTTVTVSS VL: EIVLTQSPATLSLSPGERATLSCRASESVDNYGLSFINWFQQKPGQAPRLLIYGTSNRGSGIPARFSGSGSGTDFTLTISSLEPEDFAVYFCQQSNEVPYTFGGGTKVEIK | 114 | 3.05 | 6.3e-05 | 551000 |  |  | 
P1AE1693_Fab, humanized anti-FAP Fab VH1G2a/VL1G2a (Fab, V domains shown) VH: QVQLVQSGAEVKKPGASVKVSCKASGYTLTDYNMDWVRQAPGKSLEWIGDIYPNTGGTIYNQKFKGRVTMTIDKSTSTVYMELSSLRSEDTAVYYCTRFRGIHYAMDYWGQGTTVTVSS VL: EIVLTQSPATLSLSPGERATLSCRASESVDNYGLSFINWFQQKPGQPPRLLIYGTSNRGSGIPARFSGSGSGTDFTLTISSLEPEDFAVYFCQQSNEVPYTFGGGTKVEIK | 135 | 2.68 | 7.18e-05 | 530000 |  |  | 
P1AE1689_Fab, humanized anti-FAP Fab VH1G1a/VL1G1a (Fab, V domains shown, also called FAP antibody 1G1a; H212) VH: QVQLVQSGAEVKKPGASVKVSCKASGYTLTDYNMDWVRQAPGQGLEWIGDIYPNTGGTIYNQKFKGRVTMTIDTSTSTVYMELSSLRSEDTAVYYCTRFRGIHYAMDYWGQGTTVTVSS VL: EIVLTQSPATLSLSPGERATLSCRASESVDNYGLSFINWFQQKPGQAPRLLIYGTSNRGSGIPARFSGSGSGTDFTLTISSLEPEDFAVYFCQQSNEVPYTFGGGTKVEIK | 95 | 4.57 | 4.21e-05 | 443000 |  |  | 
